In the DeepSol protein solubility set:

test: soluble on expression in E. coli; label from the status in PepcDB or PDB records

Sequence | soluble on expression in E. coli
MLDANKLQQAVDQAYTQFHSLNGGQNADYIPFLANVPGQLAAVAIVTCDGNVYSAGDSDYRFALESISKVCTLALALEDVGPQAVQDKIGADPTGLPFNSVIALELHGGKPLSPLVNAGAIATTSLINAENVEQRWQRILHIQQQLAGEQVALSDEVNQSEQTTNFHNRAIAWLLYSAGYLYCDAMEACDVYTRQCSTLLNTIELATLGATLAAGGVNPLTHKRVLQADNVPYILAEMMMEGLYGRSGDWAYRVGLPGKSGVGGGILAVVPGVMGIAAFSPPLDEDGNSVRGQKMVASVAKQLGYNVFKG | soluble
MDFLKQPCAPLDFDLSREQIEGMLRSARFIKGSFSTRVVGHLPIDNSFRQVSVAIENETSSSIEIMTLERGDTFCGIPLKQRKIPFQNSLKSADIDFTYDDSGIDLTNAPVSFFIEGGRVASICWHHKHRN | not soluble
MLVGHARKDITPTEPFYLLGYKTELRNQPAKGIHDHIYINALLFYDDKGNECFLATGDLLELEDIVAADIRQKISRKYGIAMDHVIIGVTHDHHSVRDYHRTWEFGKFSQTYYDFFVDSFVQAFEDCRETLTDVTVQYGQQEIFGFYSNRNHANKPSDNAVSVIKFIADGHAVAGIVNMAVHSTVLGPDNQYLTADLAGNTCTKLAKEWGFFPLMLIGCAADSSNRYERQGRDFAELERASSGLAVAISKIQTPKRLCLGKIQTLTLSHEVVNDKPIYDRKLRTMINDLRSGVIKAIGSQSVEAIVEKCEDQLNKPQFHDLLSLQLLDIGELRLFVFPGELASAGAKKLTSFDRLEHHHHHH | not soluble
MGSDKIHHHHHHMLQTLQKDAIELLKTLIKTESFSKEEHNTAEILNTFLVERGVETIREKNNVWAFNKHFDKNKPTILLNSHHDTVKPNPGYTNDPFEPIVKDGKLFGLGSNDAGGCLVSLIATFLHFYNETNLKYNFCIAATAEEEISGFDGLELVYPKLGPIDFAIVGEPTLMDIAVAEKGLMVVDCVAIGKAGHAAREEGENAIYIALKDIEWIRNYKFERVSPHLGPMKMSVTIINAGYQHNVVPEKCHFTIDVRITEEYKNEEVLKIIDDNIQSEVNPRSVRLRPSFIDPNHELVHAAIKHGAKTYGSPTTSDQALIPVPSVKMGPGNSARSHTANEFIWLIEIEEGIEKYIKVLSEIVLA | not soluble
MRLVLSSLIVIAGLLSSQATAATAPEQTASADIRDSGFVYCVSGQVNTFNPQKASSGLIVDTLAAQLYDRLLDVDPYTYRLVPELAESWEVLDNGATYRFHLRRDVSFQKTAWFTPTRKLNADDVVFTFQRIFDRRHPWHNINGSSFPYFDSLQFADNVKSVRKLDNNTVEFRLTQPDASFLWHLATHYASVMSAEYAAQLSRKDRQELLDRQPVGTGPFQLSEYRAGQFIRLQRHDGFWRGKPLMPQVVVDLGSGGTGRLSKLLTGECDVLAWPAASQLTILRDDPRLRLTLRPGMNIAYLAFNTDKPPLNNPAVRHALALSINNQRLMQSIYYGTAETAASILPRASWAYDNDAKITEYNPQKSREQLKALGIENLTLHLWVPTSSQAWNPSPLKTAELIQADMAQVGVKVVIVPVEGRFQEARLMDMNHDLTLSGWATDSNDPDSFFRPLLSCAAINSQTNFAHWCNPEFDSVLRKALSSQQLASRIEAYEEAQNILEKELPILPLASSLRLQAYRYDIKGLVLSPFGNASFAGVSREKHEEVKKP | not soluble
MGSDKIHHHHHHMKSTIYKALIGATLIIGLSSCVNNWLDVEPGDQVEADEAVTTSADLSSVRAGMYQIIKGTSDFKDYYAARMFYYGEVRGEDMQTEKSGSRSQLCYDMTYSTADNAPSIWQTPYIVIGRANRIIEAAESGKLTDKEEAADIIAQYAAEAKVARAMAHFDLVRVYGKTYTAPDAPNSLGIPVVTTVLGSDSKLIRNTVSEVYTQVIKDLNEAINSKALSESSTPGYINLWAAKALLSRVYLTQGDNQKSLDVAEDIIKNSPYKLWKNEEYVGAWSKISGVHSNEMLFEIAITGSTDWTDREGIAYLYNEDGYADIIATKKFLDLLNEDPNDVRLGVFLAPTTKDFKKLYGTNTVFLNKYPADGLSDLRYNNVPLVRLSEVYLNAAEAAAKLGNQNDKAVEYLDAIVKRANPNKTVKGTTVTVDRVLLERRKELIGEGHRFFDAMRNNETVIRYTSKEDQGWQQALKEEARSFNRDFYKTLLPIPQDEIDANPSMKDQQNTGY | not soluble
MDKSSDAFRTISEVAELLELPQHVLRFWETRFKQIKPMKRGGGRRYYRPVDIDLLNGIKQLLYDQGYTIKGVQRLLKENGVAFVTAFGNGDLDAMNVVIEKKHGEQTSEVTSSKPKKSSFGLLSFMRNEVETSIGSVNVYKDKTDKALLQEILFELIECKRVLDRAR | not soluble
ATQRFLIEKFSQEQIGENIVCRVICTTGQIPIRDLSADISQVLKEKRSIKKVWTFGRNPACDYHLGNISRLSNKHFQILLGEDGNLLLNDISTNGTWLNGQKVEKNSNQLLSQGDEITVGVGVESDILSLVIFINDKFKQCLEQNKVDRIR | soluble
MNIIKANVAAPDARVAITIARFNQFINDSLLDGAVDALTRIGQVKDDNITVVWVPGAYELPLATEALAKSGKYDAVVALGTVIRGGTAHFEYVAGGASNGLASVAQDSGVPVAFGVLTTESIEQAIERAGTKAGNKGAEAALTALEMINVLKAIKA | not soluble
GSARPSSSMADFRKFFAKAKHIVIISGAGVSAESGVPTFRGAGGYWRKWQAQDLATPLAFAHNPSRVWEFYHYRREVMGSKEPNAGHRAIAECETRLGKQGRRVVVITQNIDELHRKAGTKNLLEIHGSLFKTRCTSCGVVAENYKSPICPALSGKGAPEPGTQDASIPVEKLPRCEEAGCGGLLRPHVVWFGENLDPAILEEVDRELAHCDLCLVVGTSSVVYPAAMFAPQVAARGVPVAEFNTETTPATNRFRFHFQGPCGTTLPEALA | soluble
MPERLQVYKCEVCGNIVEVLNGGIGELVCCNQDMKLMSENTVDAAKEKHVPVIEKIDGGYKVKVGAVAHPMEEKHYIQWIELLADDKCYTQFLKPGQAPEAVFLIEAAKVVAREYCNIHGHWKAEN | soluble
SLYCIEEKIEKALGIKEASLVLKNCNIVNVFSSEIIRGDLAIDGDTIIGIGKYKGKTEIDLSNKYVAPGFIDSHVHIESSMVSPKEFARAVISRGTTTIIVDPHEIANVCGMDGIKYMMEETKNMPLDVFFMLSSCVPATSFETSGAVLKAEDLKELIDSDRVLGLGEMMNYPGVLSREEEVLNKLKLAGSYNKIVDGHAPSVRGNELNAYNLAGIKTDHECSSIEEMNEKIRNGMYIAIREGSAAKNLDILIKGVNAKNERRIMFCADDRHPDDILKSGHMDNCVRRAIYNGIENTAAIRMASINAAECYKLERVGAIAPSYKADLVVLEDLKDVKVNMVIKSGEVVFKDNKHLKDMGSKSDITKVSNTVNIKKVSEENLELKLDTDVCSIISVALNSISTKNVKRKVNLSNGIFKCELNYGINKVAVIERHKKSGSIGIGLVENFGLKRGAIASTVAHDSHNIIVLGNNDEDMVKAVNEIERVGGGITISLDGKIIETLELEIAGLMSNKSMEFVAERVSKMINICHNTLGVNKDIQPFMTLAFLALPVIPEIRITDKGVFDVVNFKFL | soluble
MGSDKIHHHHHHMRLDHLRLQNFRCYEDAHFDFQPGFNLVVGVNGSGKTSLLLGVAECLIPYGNAMGQGQEILSKEDVRFVIDRHEGRSRFERKFPVFIRADGDIFDLPNWRAVRLLEPWEGGVDPSSLSHLSAVLARNNAGEQIDFPVLAFYRANRRWSSARISAEFAAQQRTSRFDGYANWFDAVADLRDFESWLIARTLERLQDRLDSTPTVEREDELEWVNRAIRLAIPDAHDLRYDLRLQSLLVDMGEGNAVPFHELSDGQRSLIALIADIARRMCVLNPHIGKDVLANTGGIVIIDELDIHLHPAWQRNIAPTLKKAFPKVQFIATSHSPQVIGSLQPGEVILLKNGDSSHPRATYGLDSSTILEEVMGVPQREPEIEVLLDELFSTLENNELEKARLQLDALKKKAPDLPEFAGAEALLKRKELIGR | not soluble
MFSVTLLVVSCGILAAAYPYSQQYGNYDQQYSQQSQYYPSSGQQGYRGGYQSNPGMQGGYQGNGQDSYQDFQGYQGYQRGQGGQRGYQGYQSNQRSQGSYPERYDSSMYSPVMDLTNYYGSQGTPQYYGYPSSASYQMTPYYQNQNQGYMQQQQYNTPSQSSWSPMYYGNGYQSQQSQQQQSSMGIRPYQSSWGQTQGTNTWGSPYQFTKVDAQVTDDDNVDGSGMDSSEQTSSPASTDDSQMTSNDD | not soluble
LYLKRATHRIADGIGVVKASKLMGGSIRERVTGIDVMDNFLEYANQHKERIFLYGAKQEVVEAAAKNIQRQYPGIVISGILHGYTKKKQQEIVEQINKAEPRFVFVALGSPKQEIFLEQTIDHLTANVFLDVGGTFDVLAGSVKRAPEFYINHNLEWLYRCLTMKRYDRLMQIPKYIYLTIKYRNNKSRGQ | not soluble
MEKLTIQEEEVMLHIWSMGECFVKDIVAKFPEPKPPYTTVASIVNNLKRKGYVTAKRFGNTYQYTPVVKQSEYKRTFVSGVVRNYFADSYKEMVSFFAKEQKISAADLKDIINLIEKEEDK | not soluble
PKPLKNLDGQFCEICGDQIGLTVEGDLFVACNECGFPACRPCYEYERREGTQNCPQCKTRYKRLRGSPRVEGDEDEEDID | soluble
MGSDKIHHHHHHMADFNQYTRWEHQMHGVKLPRWDDLPKFDLYMDQVTALINDVLGPLGIDTVTPAMINNYVKHNVIMAPVKKKYQTMQLTDILMISLLKPMFQTDTVRSGIDQITAGDYPKQAYDNFIGQLEDRLHHLGEDQVQPAAQNLNEKLMQVAVDTVVSRLQSEKLLRLIKRPLRKIEKK | not soluble
MSKVALFAGGDLSYISRDFDYFVGIDRGSLFLLENGLPLNMAVGDFDSVSQKAFTDIKEKAELFITAHPEKNDTDTELALKEVFARFPEAEVTIFGAFGGRMDHLLSNIFLPSDPGIAPFMAQIALRDQQNMITYRPAGQHLIHQEEGMTYVAFMAEGEADLTITGAKFELTQDNFFKKKIYSSNAFIHQPITVSLPSGYLIIIQSKDWS | soluble
MAHHHHHHMTDMELVEALNATEVPIARAVFLMISAVQDADAGDNKTWSCCHPDRSPAASPGSTTGWRSLRESPSGPAVIEVCYNDGADSFLTVKWVPMDKTHLVMITQRSDRERSHQPLNTSFCIEDEPLASLVLGQQTGSGASAAAMWTAESLGSALHRLRCLLQSAIGNTGRGSEQNEKFSAAQDSDCGRELPSPRRRNLVILNSTAVDPPLLLPLPCLPKAVCYLREWSRVLPAPVTAKRISSPVVEVLVWVAA | soluble
SDAALLLNVEGVKKTILHGGTGELPNFITGSRVIFHFRTMKCDEERTVIDDSRQVGQPMHIIIGNMFKLEVWEILLTSMRVHEVAEFWCDTIHTGVYPILSRSLRQMAQGKDPTEWHVHTCGLANMFAYHTLGYEDLDELQKEPQPLVFVIELLQVDAPSDYQRETWNLSNHEKMKAVPVLHGEGNRLFKLGRYEEASSKYQEAIICLRNLQTKEKPWEVQWLKLEKMINTLILNYCQCLLKKEEYYEVLEHTSDILRHHPGIVKAYYVRARAHAEVWNEAEAKADLQKVLELEPSMQKAVRRELRLLENRMAEKQEEERLRCRNMLSQGATQPPAEPPTEPPAQSSTEPPAEPPTAPSAELSAGPPAEPATEPPPSPGHSLQH | soluble
MTTVQTSVYEPLTEPKAVSLAVRLGLFRDGAPLACREIGDGNLNLVFHIVDQETKQGVIIKQALPYAKVVGESWPLTLKRAVIESNALRTFASYVPQYVPKVYYSDESLAITVMEDLSRLQIARKGLIEGKTYPLLSQHIGEFVAKTAFYTSDFGMNQQEKKKLAQSFVNPELCKITEDLVFTDPFFDHETNNFEDELRPDVEALWRDDRLHLEAAKLKRKFLTEADVLLHGDLHTGSIFVSADETKVIDPEFAFYGPIGFDLGQFFANLLLNALSRSELERQPLFDHIDRTWDVFASVFSNLWCTESVETYAATPGLLEDVLRHAFIDAVGFAGCEVIRRTIGLAHVADLDGIEHKDERLVAKRHALRLGRRLIIERRVFTGTEDFRRLFAETEQ | not soluble
